Paper PMC2196189 (The Journal of Cell Biology, 2001)
Values belong to the binder of their own block, whether it stands above or below them.

Experiments:
Kap95p (recombinant) = biological target: T1, Kap95p (recombinant) (S. cerevisiae, UniProt Q06142 1-861); assay: pull-down
T1 sequence (looked up): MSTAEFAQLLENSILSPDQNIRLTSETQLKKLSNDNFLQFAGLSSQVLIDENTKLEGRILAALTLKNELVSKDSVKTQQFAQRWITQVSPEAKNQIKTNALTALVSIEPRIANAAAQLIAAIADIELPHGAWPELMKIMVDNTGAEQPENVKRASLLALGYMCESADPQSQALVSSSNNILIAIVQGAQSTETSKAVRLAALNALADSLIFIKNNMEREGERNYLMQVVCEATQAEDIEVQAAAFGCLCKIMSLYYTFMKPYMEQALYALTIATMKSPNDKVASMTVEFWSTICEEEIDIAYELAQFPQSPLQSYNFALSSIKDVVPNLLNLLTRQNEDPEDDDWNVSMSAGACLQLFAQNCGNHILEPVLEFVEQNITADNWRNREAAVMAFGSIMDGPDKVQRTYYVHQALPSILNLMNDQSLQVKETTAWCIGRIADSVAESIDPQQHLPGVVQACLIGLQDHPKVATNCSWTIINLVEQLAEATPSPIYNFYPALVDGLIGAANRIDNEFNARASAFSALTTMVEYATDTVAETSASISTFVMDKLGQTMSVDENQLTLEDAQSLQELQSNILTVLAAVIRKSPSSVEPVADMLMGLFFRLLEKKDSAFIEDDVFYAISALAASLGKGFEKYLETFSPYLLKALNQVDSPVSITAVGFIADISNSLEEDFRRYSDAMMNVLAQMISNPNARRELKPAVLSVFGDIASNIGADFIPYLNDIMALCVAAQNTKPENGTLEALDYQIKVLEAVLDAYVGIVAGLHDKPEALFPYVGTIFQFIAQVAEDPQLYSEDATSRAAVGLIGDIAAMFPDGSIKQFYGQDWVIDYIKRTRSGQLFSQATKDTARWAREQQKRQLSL

[1] = biological target: Nup2p (construct of the data-not-shown experiments not stated) (S. cerevisiae, UniProt P32499 1-720); assay: radioligand binding
GST–Nup60p = GST–Nup60p (S. cerevisiae, UniProt P39705 1-539); assay: pull-down
[2] = biological target: T2, Kap95p–Kap60p heterodimers (recombinant) (S. cerevisiae, UniProt Q06142 1-861; Q02821 1-542); assay: pull-down
T2 sequence (looked up) 1: T1 sequence (looked up)
T2 sequence (looked up) 2: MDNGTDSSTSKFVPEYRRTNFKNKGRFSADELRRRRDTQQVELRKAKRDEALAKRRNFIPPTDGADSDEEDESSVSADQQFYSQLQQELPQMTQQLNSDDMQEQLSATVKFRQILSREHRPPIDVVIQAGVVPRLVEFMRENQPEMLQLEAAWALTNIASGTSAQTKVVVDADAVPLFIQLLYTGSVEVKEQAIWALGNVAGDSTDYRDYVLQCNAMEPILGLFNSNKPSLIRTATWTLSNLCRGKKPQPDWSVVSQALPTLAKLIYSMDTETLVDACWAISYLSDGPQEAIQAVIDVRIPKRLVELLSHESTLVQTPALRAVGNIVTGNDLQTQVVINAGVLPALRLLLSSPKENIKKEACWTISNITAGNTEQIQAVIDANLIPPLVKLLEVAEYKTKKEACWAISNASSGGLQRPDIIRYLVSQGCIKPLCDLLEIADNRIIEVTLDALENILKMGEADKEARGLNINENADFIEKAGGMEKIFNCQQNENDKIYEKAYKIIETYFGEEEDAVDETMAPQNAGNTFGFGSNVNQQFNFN

Sequence of Nup2p (construct of the data-not-shown experiments not stated) (P32499 whole entry): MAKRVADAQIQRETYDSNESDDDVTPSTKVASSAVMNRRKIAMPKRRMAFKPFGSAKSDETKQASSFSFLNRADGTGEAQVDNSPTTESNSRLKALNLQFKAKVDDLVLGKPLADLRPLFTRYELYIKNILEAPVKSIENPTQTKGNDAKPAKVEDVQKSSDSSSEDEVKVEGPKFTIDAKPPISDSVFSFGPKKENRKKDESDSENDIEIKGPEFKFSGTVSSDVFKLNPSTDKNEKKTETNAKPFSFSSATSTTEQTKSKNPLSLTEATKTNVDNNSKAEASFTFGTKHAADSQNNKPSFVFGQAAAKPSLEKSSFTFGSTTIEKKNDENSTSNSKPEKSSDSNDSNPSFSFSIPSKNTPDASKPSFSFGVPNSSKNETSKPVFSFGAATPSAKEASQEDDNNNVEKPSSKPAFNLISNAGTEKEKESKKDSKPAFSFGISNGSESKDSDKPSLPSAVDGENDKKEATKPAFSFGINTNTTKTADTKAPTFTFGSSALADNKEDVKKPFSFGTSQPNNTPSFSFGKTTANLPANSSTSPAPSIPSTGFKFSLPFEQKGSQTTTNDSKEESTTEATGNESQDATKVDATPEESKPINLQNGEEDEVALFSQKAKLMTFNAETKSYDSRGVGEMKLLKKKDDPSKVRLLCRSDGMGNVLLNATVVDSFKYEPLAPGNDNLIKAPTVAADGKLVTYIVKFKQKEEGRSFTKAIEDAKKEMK

- binding result (Kap95p (recombinant)): binds
B1: GST–Nup60p (aa 188–388) (domain or fragment, S. cerevisiae, UniProt P39705 188-388, looked up)
chain: PTFNPKYDTSNASMNTTLGSIGSRKYSFNYSSLPSPYKTTVYRYSAAKKIPDTYTANTSAQSIASAKSVRSGVSKSAPSKKISNTAAALVSLLDENDSKKNNAASELANPYSSYVSQIRKHKRVSPNAAPRQEISEEETTVKPLFQNVPEQGEEPMKQLNATKISPSAPSKDSFTKYKPARSSSLRSNVVVAETSPEKKDG

- binding result (Kap95p (recombinant)): binds
B2: GST–Nup60p (aa 1–187) (domain or fragment, S. cerevisiae, UniProt P39705 1-187, looked up)
chain: MHRKSLRRASATVPSAPYRKQIISNAHNKPSLFSKIKTFFTQKDSARVSPRNNVANKQPRNESFNRRISSMPGGYFHSEISPDSTVNRSVVVSAVGEARNDIENKEEEYDETHETNISNAKLANFFSKKGNEPLSEIEIEGVMSLLQKSSKSMITSEGEQKSAEGNNIDQSLILKESGSTPISISNA

- Kd [1]: ~200 pM
B3: Kap60p (recombinant) (natural protein, S. cerevisiae, UniProt Q02821 1-542, looked up)
chain: T2 sequence (looked up) 2

- binding result (GST–Nup60p): binds
B4: Prp20p (natural protein)
chain: MVKRTVATNGDASGAHRAKKMSKTHASHIINAQEDYKHMYLSVQPLDIFCWGTGSMCELGLGPLAKNKEVKRPRLNPFLPRDEAKIISFAVGGMHTLALDEESNVWSWGCNDVGALGRDTSNAKEQLKDMDADDSSDDEDGDLNELESTPAKIPRESFPPLAEGHKVVQLAATDNMSCALFSNGEVYAWGTFRCNEGILGFYQDKIKIQKTPWKVPTFSKYNIVQLAPGKDHILFLDEEGMVFAWGNGQQNQLGRKVMERFRLKTLDPRPFGLRHVKYIASGENHCFALTKDNKLVSWGLNQFGQCGVSEDVEDGALVTKPKRLALPDNVVIRSIAAGEHHSLILSQDGDLYSCGRLDMFEVGIPKDNLPEYTYKDVHGKARAVPLPTKLNNVPKFKSVAAGSHHSVAVAQNGIAYSWGFGETYAVGLGPFEDDTEVPTRIKNTATQDHNIILVGCGGQFSVSGGVKLSDEDAEKRADEMDD

- binding result [2]: binds
B5: GST–Nup60p (aa 389–539) (domain or fragment, S. cerevisiae, UniProt P39705 389-539, looked up)
chain: GDKPPSSAFNFSFNTSRNVEPTENAYKSENAPSASSKEFNFTNLQAKPLVGKPKTELTKGDSTPVQPDLSVTPQKSSSKGFVFNSVQKKSRSNLSQENDNEGKHISASIDNDFSEEKAEEFDFNVPVVSKQLGNGLVDENKVEAFKSLYTF
